Patent US20210403591A1 (OSSIANIX, published 2021)
Residue numbers refer to the chain shown, from its start.

B1: Clone C variant 13 VNAR-hFc (Fc fusion, not shown: a dimerising Fc or GST)
chain: ARVDQTPQTITKETGESLTINCVLRDSNCALSSTYWYRKKSGSTNEENISKGGRYVETVNSGSKSFSLRINDLTVEDSGTYRCNVVQYPQQDNYFWCDVYGDGTAVTVN
notes: also called Clone C v13; Clone C var; 13
B2: Clone C variant 18 VNAR-hFc (Fc fusion, not shown: a dimerising Fc or GST)
chain: B1 chain with Q91Y, D92P
notes: also called Clone C v18; Clone C var; 18
B3: Clone C VNAR-hFc fusion (Fc fusion, not shown: a dimerising Fc or GST)
chain: B1 chain with Q90S, Q91Y, D92N
notes: bivalent VNAR-Fc; also called Clone C-hFc
B4: 8D3 antibody (anti-mouse TfR-1 control; 8D3-hFc formatted antibody) (antibody, V domains shown)
VH: EVQLVESGGGLVQPGNSLTLSCVASGFTFSNYGMHWIRQAPKKGLEWIAMIYYDSSKMNYADTVKGRFTISRDNSKNTLYLEMNSLRSEDTAMYYCAVPTSHYVVDVWGQGVSVTVSS
VL: DIQMTQSPASLSASLEEIVTITCQASQDIGNWLAWYQQKPGKSPQLLIYGATSLADGVPSRFSGSRSGTQFSLKISRVQVEDIGIYYCLQAYNTPWTFGGGTKLELK

Each binder was assayed against purified WT mTfR-1 (ELISA coat) (mouse, UniProt Q62351 89-763) (assay: ELISA, coated purified mTfR-1).
Sequence of purified WT mTfR-1 (ELISA coat) (Q62351 89-763): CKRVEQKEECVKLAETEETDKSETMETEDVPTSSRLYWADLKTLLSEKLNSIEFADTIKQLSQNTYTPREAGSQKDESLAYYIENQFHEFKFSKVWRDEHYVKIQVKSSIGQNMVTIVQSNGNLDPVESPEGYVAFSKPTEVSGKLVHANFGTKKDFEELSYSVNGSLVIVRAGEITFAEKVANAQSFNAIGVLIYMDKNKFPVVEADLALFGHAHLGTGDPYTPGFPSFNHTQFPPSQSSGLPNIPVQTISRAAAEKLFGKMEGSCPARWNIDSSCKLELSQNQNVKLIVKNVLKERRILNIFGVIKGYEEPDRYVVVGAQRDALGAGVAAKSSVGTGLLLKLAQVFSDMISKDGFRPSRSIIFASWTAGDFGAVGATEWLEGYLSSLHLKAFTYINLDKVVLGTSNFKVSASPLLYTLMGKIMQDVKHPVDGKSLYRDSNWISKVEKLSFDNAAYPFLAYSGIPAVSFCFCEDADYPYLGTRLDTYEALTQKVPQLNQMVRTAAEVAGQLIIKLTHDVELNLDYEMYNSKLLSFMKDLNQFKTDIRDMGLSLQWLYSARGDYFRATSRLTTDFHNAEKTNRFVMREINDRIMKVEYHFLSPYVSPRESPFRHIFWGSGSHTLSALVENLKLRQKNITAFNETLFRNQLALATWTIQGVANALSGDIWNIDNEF

| EC50 [nM] | Binder |
| --- | --- |
| 0.8 | B1 |
| 0.69 | B2 |

Each binder was assayed against T1, mTfR-1 S197A on Expi293 cells (mouse, UniProt Q62351 1-763) (assay: FACS, transfected Expi293 cells).
T1 construct: whole, on cells
T1 sequence (Q62351 whole entry S197A): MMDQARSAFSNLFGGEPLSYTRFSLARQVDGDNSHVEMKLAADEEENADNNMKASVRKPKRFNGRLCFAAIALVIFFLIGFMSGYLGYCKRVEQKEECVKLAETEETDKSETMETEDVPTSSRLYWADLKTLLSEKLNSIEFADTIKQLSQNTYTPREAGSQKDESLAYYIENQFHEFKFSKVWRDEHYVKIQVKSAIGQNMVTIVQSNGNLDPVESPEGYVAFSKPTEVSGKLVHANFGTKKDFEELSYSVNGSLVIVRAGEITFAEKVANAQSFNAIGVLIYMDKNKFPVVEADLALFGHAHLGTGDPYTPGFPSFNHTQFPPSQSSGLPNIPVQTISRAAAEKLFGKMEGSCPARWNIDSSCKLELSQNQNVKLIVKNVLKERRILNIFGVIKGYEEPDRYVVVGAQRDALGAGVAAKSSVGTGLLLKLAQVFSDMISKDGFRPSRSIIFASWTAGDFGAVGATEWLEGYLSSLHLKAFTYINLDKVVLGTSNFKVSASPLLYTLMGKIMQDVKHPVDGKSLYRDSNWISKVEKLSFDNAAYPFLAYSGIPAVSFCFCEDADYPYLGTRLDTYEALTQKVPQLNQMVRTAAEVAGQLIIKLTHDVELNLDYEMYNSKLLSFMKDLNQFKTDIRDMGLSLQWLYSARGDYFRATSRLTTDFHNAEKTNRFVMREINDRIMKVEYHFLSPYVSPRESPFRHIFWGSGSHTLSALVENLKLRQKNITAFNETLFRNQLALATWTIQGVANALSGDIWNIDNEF
Procedure: (§1) Transfected Expi293 cells were harvested and 2×10⁵ cells were transferred into V-bottom 96-well plate for staining. The cells were blocked in PBS containing 1% BSA (FACS buffer) for 10 min on ice, centrifuged to remove the buffer and 1 μl of 8D3-hFc formatted antibody, Clone C-hFc or Clone C variants 18 and 13 (Table 1), all at 1 mg/ml, was added to the wells. The cells were co-stained with mouse Tf-Alexa647 (Jackson ImmunoResearch). After 30 minutes on ice, the cells were washed and incubated with anti-hFc-PE (eBioscience) for 20 minutes on ice, washed again and resuspended in […] of FACS buffer containing 5 μl of propidium iodide (PI) to exclude dead cells from the analysis. The percentage of double-positive cells that stained with mTf and the tested antibody was determined on a CytoFlex cytometer (Beckman Coulter). The percentage of cells in the double positive quadrant (Q2) for WT mTfR-1 was used for normalization.

| % double-positive cells vs WT [%] | Binder |
| --- | --- |
| 111 | B3 |
| 56 | B1 |
| 66 | B2 |
| 100 | B4 |

These binders were tested against T2, mTfR-1 S326A on Expi293 cells (mouse, UniProt Q62351 1-763) (assay: FACS, transfected Expi293 cells).
T2 construct: whole, on cells
T2 sequence (Q62351 whole entry S326A): as the sequence (Q62351 whole entry S197A) above, with A197S, S326A counted along it
Procedure: as §1

| % double-positive cells vs WT [%] | Binder |
| --- | --- |
| 136 | B3 |
| 77 | B1 |
| 129 | B2 |
| 31 | B4 |

These binders were tested against T3, mTfR-1 E229A on Expi293 cells (mouse, UniProt Q62351 1-763) (assay: FACS, transfected Expi293 cells).
T3 construct: whole, on cells
T3 sequence (Q62351 whole entry E229A): as the sequence (Q62351 whole entry S197A) above, with A197S, E229A counted along it
Procedure: as §1

| % double-positive cells vs WT [%] | Binder |
| --- | --- |
| 81 | B3 |
| 43 | B1 |
| 51 | B2 |
| 68 | B4 |

The binders below were run against T4, mTfR-1 S231A on Expi293 cells (mouse, UniProt Q62351 1-763) (assay: FACS, transfected Expi293 cells).
T4 construct: whole, on cells
T4 sequence (Q62351 whole entry S231A): as the sequence (Q62351 whole entry S197A) above, with A197S, S231A counted along it
Procedure: as §1

| % double-positive cells vs WT [%] | Binder |
| --- | --- |
| 283 | B3 |
| 101 | B1 |
| 173 | B2 |
| 65 | B4 |

The binders below were run against T5, mTfR-1 Q274A on Expi293 cells (mouse, UniProt Q62351 1-763) (assay: FACS, transfected Expi293 cells).
T5 construct: whole, on cells
T5 sequence (Q62351 whole entry Q274A): as the sequence (Q62351 whole entry S197A) above, with A197S, Q274A counted along it
Procedure: as §1

| % double-positive cells vs WT [%] | Binder |
| --- | --- |
| 182 | B3 |
| 84 | B1 |
| 229 | B2 |
| 87 | B4 |

What follows are binders tested against T6, mTfR-1 V194A on Expi293 cells (mouse, UniProt Q62351 1-763) (assay: FACS, transfected Expi293 cells).
T6 construct: whole, on cells
T6 sequence (Q62351 whole entry V194A): as the sequence (Q62351 whole entry S197A) above, with V194A, A197S counted along it
Procedure: as §1

| % double-positive cells vs WT [%] | Binder |
| --- | --- |
| 184 | B3 |
| 199 | B2 |
| 60 | B4 |

Each binder was assayed against T7, mTfR-1 P325A on Expi293 cells (mouse, UniProt Q62351 1-763) (assay: FACS, transfected Expi293 cells).
T7 construct: whole, on cells
T7 sequence (Q62351 whole entry P325A): as the sequence (Q62351 whole entry S197A) above, with A197S, P325A counted along it
Procedure: as §1

| % double-positive cells vs WT [%] | Binder |
| --- | --- |
| 148 | B3 |
| 83 | B1 |
| 175 | B2 |
| 119 | B4 |

The binders below were run against T8, mTfR-1 N333A on Expi293 cells (mouse, UniProt Q62351 1-763) (assay: FACS, transfected Expi293 cells).
T8 construct: whole, on cells
T8 sequence (Q62351 whole entry N333A): as the sequence (Q62351 whole entry S197A) above, with A197S, N333A counted along it
Procedure: as §1

| % double-positive cells vs WT [%] | Binder |
| --- | --- |
| 213 | B3 |
| 94 | B1 |
| 161 | B2 |
| 90 | B4 |

What follows are binders tested against T9, mTfR-1 G330A on Expi293 cells (mouse, UniProt Q62351 1-763) (assay: FACS, transfected Expi293 cells).
T9 construct: whole, on cells
T9 sequence (Q62351 whole entry G330A): as the sequence (Q62351 whole entry S197A) above, with A197S, G330A counted along it
Procedure: as §1

| % double-positive cells vs WT [%] | Binder |
| --- | --- |
| 307 | B3 |
| 87 | B1 |
| 231 | B2 |
| 90 | B4 |

These binders were tested against T10, mTfR-1 S328A on Expi293 cells (mouse, UniProt Q62351 1-763) (assay: FACS, transfected Expi293 cells).
T10 construct: whole, on cells
T10 sequence (Q62351 whole entry S328A): as the sequence (Q62351 whole entry S197A) above, with A197S, S328A counted along it
Procedure: as §1

| % double-positive cells vs WT [%] | Binder |
| --- | --- |
| 50 | B3 |
| 22 | B1 |
| 20 | B2 |
| 141 | B4 |

The binders below were run against T11, mTfR-1 K226A on Expi293 cells (mouse, UniProt Q62351 1-763) (assay: FACS, transfected Expi293 cells).
T11 construct: whole, on cells
T11 sequence (Q62351 whole entry K226A): as the sequence (Q62351 whole entry S197A) above, with A197S, K226A counted along it
Procedure: as §1

| % double-positive cells vs WT [%] | Binder |
| --- | --- |
| 157 | B3 |
| 77 | B1 |
| 91 | B2 |
| 111 | B4 |

These binders were tested against T12, mTfR-1 S329A on Expi293 cells (mouse, UniProt Q62351 1-763) (assay: FACS, transfected Expi293 cells).
T12 construct: whole, on cells
T12 sequence (Q62351 whole entry S329A): as the sequence (Q62351 whole entry S197A) above, with A197S, S329A counted along it
Procedure: as §1

| % double-positive cells vs WT [%] | Binder |
| --- | --- |
| 212 | B3 |
| 73 | B1 |
| 182 | B2 |
| 18 | B4 |

The binders below were run against T13, mTfR-1 I378A on Expi293 cells (mouse, UniProt Q62351 1-763) (assay: FACS, transfected Expi293 cells).
T13 construct: whole, on cells
T13 sequence (Q62351 whole entry I378A): as the sequence (Q62351 whole entry S197A) above, with A197S, I378A counted along it
Procedure: as §1

| % double-positive cells vs WT [%] | Binder |
| --- | --- |
| 142 | B3 |
| 115 | B1 |
| 80 | B2 |
| 92 | B4 |

Each binder was assayed against T14, mTfR-1 S225A on Expi293 cells (mouse, UniProt Q62351 1-763) (assay: FACS, transfected Expi293 cells).
T14 construct: whole, on cells
T14 sequence (Q62351 whole entry S225A): as the sequence (Q62351 whole entry S197A) above, with A197S, S225A counted along it
Procedure: as §1

| % double-positive cells vs WT [%] | Binder |
| --- | --- |
| 180 | B3 |
| 73 | B1 |
| 163 | B2 |
| 64 | B4 |

What follows are binders tested against T15, mTfR-1 Q200A on Expi293 cells (mouse, UniProt Q62351 1-763) (assay: FACS, transfected Expi293 cells).
T15 construct: whole, on cells
T15 sequence (Q62351 whole entry Q200A): as the sequence (Q62351 whole entry S197A) above, with A197S, Q200A counted along it
Procedure: as §1

| % double-positive cells vs WT [%] | Binder |
| --- | --- |
| 90 | B3 |
| 72 | B1 |
| 171 | B2 |
| 66 | B4 |

The binders below were run against T16, mTfR-1 V382A on Expi293 cells (mouse, UniProt Q62351 1-763) (assay: FACS, transfected Expi293 cells).
T16 construct: whole, on cells
T16 sequence (Q62351 whole entry V382A): as the sequence (Q62351 whole entry S197A) above, with A197S, V382A counted along it
Procedure: as §1

| % double-positive cells vs WT [%] | Binder |
| --- | --- |
| 357 | B3 |
| 111 | B1 |
| 241 | B2 |
| 82 | B4 |

These binders were tested against T17, mTfR-1 L383A on Expi293 cells (mouse, UniProt Q62351 1-763) (assay: FACS, transfected Expi293 cells).
T17 construct: whole, on cells
T17 sequence (Q62351 whole entry L383A): as the sequence (Q62351 whole entry S197A) above, with A197S, L383A counted along it
Procedure: as §1

| % double-positive cells vs WT [%] | Binder |
| --- | --- |
| 328 | B3 |
| 121 | B1 |
| 354 | B2 |
| 73 | B4 |

Each binder was assayed against T18, mTfR-1 P332A on Expi293 cells (mouse, UniProt Q62351 1-763) (assay: FACS, transfected Expi293 cells).
T18 construct: whole, on cells
T18 sequence (Q62351 whole entry P332A): as the sequence (Q62351 whole entry S197A) above, with A197S, P332A counted along it
Procedure: as §1

| % double-positive cells vs WT [%] | Binder |
| --- | --- |
| 257 | B3 |
| 79 | B1 |
| 218 | B2 |
| 57 | B4 |

Each binder was assayed against T19, mTfR-1 S255A on Expi293 cells (mouse, UniProt Q62351 1-763) (assay: FACS, transfected Expi293 cells).
T19 construct: whole, on cells
T19 sequence (Q62351 whole entry S255A): as the sequence (Q62351 whole entry S197A) above, with A197S, S255A counted along it
Procedure: as §1

| % double-positive cells vs WT [%] | Binder |
| --- | --- |
| 14 | B3 |
| 23 | B2 |
| 56 | B4 |

What follows are binders tested against T20, mTfR-1 K384A on Expi293 cells (mouse, UniProt Q62351 1-763) (assay: FACS, transfected Expi293 cells).
T20 construct: whole, on cells
T20 sequence (Q62351 whole entry K384A): as the sequence (Q62351 whole entry S197A) above, with A197S, K384A counted along it
Procedure: as §1

| % double-positive cells vs WT [%] | Binder |
| --- | --- |
| 187 | B3 |
| 85 | B1 |
| 147 | B2 |
| 35 | B4 |

Each binder was assayed against T21, mTfR-1 N253A on Expi293 cells (mouse, UniProt Q62351 1-763) (assay: FACS, transfected Expi293 cells).
T21 construct: whole, on cells
T21 sequence (Q62351 whole entry N253A): as the sequence (Q62351 whole entry S197A) above, with A197S, N253A counted along it
Procedure: as §1

| % double-positive cells vs WT [%] | Binder |
| --- | --- |
| 26 | B3 |
| 10 | B2 |
| 87 | B4 |

Each binder was assayed against T22, mTfR-1 M202A on Expi293 cells (mouse, UniProt Q62351 1-763) (assay: FACS, transfected Expi293 cells).
T22 construct: whole, on cells
T22 sequence (Q62351 whole entry M202A): as the sequence (Q62351 whole entry S197A) above, with A197S, M202A counted along it
Procedure: as §1

| % double-positive cells vs WT [%] | Binder |
| --- | --- |
| 166 | B3 |
| 103 | B1 |
| 153 | B2 |
| 81 | B4 |

Each binder was assayed against T23, mTfR-1 V230A on Expi293 cells (mouse, UniProt Q62351 1-763) (assay: FACS, transfected Expi293 cells).
T23 construct: whole, on cells
T23 sequence (Q62351 whole entry V230A): as the sequence (Q62351 whole entry S197A) above, with A197S, V230A counted along it
Procedure: as §1

| % double-positive cells vs WT [%] | Binder |
| --- | --- |
| 58 | B3 |
| 47 | B1 |
| 59 | B2 |
| 81 | B4 |

The binders below were run against T24, mTfR-1 Q327A on Expi293 cells (mouse, UniProt Q62351 1-763) (assay: FACS, transfected Expi293 cells).
T24 construct: whole, on cells
T24 sequence (Q62351 whole entry Q327A): as the sequence (Q62351 whole entry S197A) above, with A197S, Q327A counted along it
Procedure: as §1

| % double-positive cells vs WT [%] | Binder |
| --- | --- |
| 83 | B3 |
| 85 | B1 |
| 119 | B2 |
| 124 | B4 |

These binders were tested against T25, mTfR-1 Q193A on Expi293 cells (mouse, UniProt Q62351 1-763) (assay: FACS, transfected Expi293 cells).
T25 construct: whole, on cells
T25 sequence (Q62351 whole entry Q193A): as the sequence (Q62351 whole entry S197A) above, with Q193A, A197S counted along it
Procedure: as §1

| % double-positive cells vs WT [%] | Binder |
| --- | --- |
| 152 | B3 |
| 178 | B2 |
| 63 | B4 |

These binders were tested against T26, mTfR-1 P324A on Expi293 cells (mouse, UniProt Q62351 1-763) (assay: FACS, transfected Expi293 cells).
T26 construct: whole, on cells
T26 sequence (Q62351 whole entry P324A): as the sequence (Q62351 whole entry S197A) above, with A197S, P324A counted along it
Procedure: as §1

| % double-positive cells vs WT [%] | Binder |
| --- | --- |
| 27 | B3 |
| 25 | B1 |
| 39 | B2 |
| 39 | B4 |

The binders below were run against T27, mTfR-1 I198A on Expi293 cells (mouse, UniProt Q62351 1-763) (assay: FACS, transfected Expi293 cells).
T27 construct: whole, on cells
T27 sequence (Q62351 whole entry I198A): as the sequence (Q62351 whole entry S197A) above, with A197S, I198A counted along it
Procedure: as §1

| % double-positive cells vs WT [%] | Binder |
| --- | --- |
| 239 | B3 |
| 73 | B1 |
| 79 | B2 |
| 94 | B4 |

The binders below were run against T28, mTfR-1 K195A on Expi293 cells (mouse, UniProt Q62351 1-763) (assay: FACS, transfected Expi293 cells).
T28 construct: whole, on cells
T28 sequence (Q62351 whole entry K195A): as the sequence (Q62351 whole entry S197A) above, with K195A, A197S counted along it
Procedure: as §1

| % double-positive cells vs WT [%] | Binder |
| --- | --- |
| 236 | B3 |
| 150 | B2 |
| 63 | B4 |
